Test results from publication PMC2810717.

Substrate: CC(=O)NCCCNCCCCNCCCN
Experiment: purified protein
Type: biochemical, Homo sapiens
Details: FAD; pH 8.3; 25.0 °C

B1: spermine oxidase (SMO) (Homo sapiens) (protein)
chain: MQSCESSGDSADDPLSRGLRRRGQPRVVVIGAGLAGLAAAKALLEQGFTDVTVLEASSHIGGRVQSVKLGHATFELGATWIHGSHGNPIYHLAEANGLLEETTDGERSVGRISLYSKNGVACYLTNHGRRIPKDVVEEFSDLYNEVYNLTQEFFRHDKPVNAESQNSVGVFTREEVRNRIRNDPDDPEATKRLKLAMIQQYLKVESCESSSHSMDEVSLSAFGEWTEIPGAHHIIPSGFMRVVELLAEGIPAHVIQLGKPVRCIHWDQASARPRGPEIEPRGEGDHNHDTGEGGQGGEEPRGGRWDEDEQWSVVVECEDCELIPADHVIVTVSLGVLKRQYTSFFRPGLPTEKVAAIHRLGIGTTDKIFLEFEEPFWGPECNSLQFVWEDEAESHTLTYPPELWYRKICGFDVLYPPERYGHVLSGWICGEEALVMEKCDDEAVAEICTEMLRQFTGNPNIPKPRRILRSAWGSNPYFRGSYSYTQVGSSGADVEKLAKPLPYTESSKTAPMQVLFSGEATHRKYYSTTHGALLSGQREAARLIEMYRDLFQQGT
- Km: 492 ± 97 µM
